Data published in patent US20260152767A1 (TRUSTEES OF COLUMBIA UNIVERSITY IN THE CITY OF NEW YORK, published 2026).

B1: Allomuricauda taeanensis (Ata) rpoE-associated nuclease-dead Cas12f (other)
chain: MGKSTLKHTRKIQILIDLPTKDEKKEVMDMMYQWRDRCFRAANIIVTHLYVQEMIKDFFYLSEGIKYKLADEKKDEKGILQRSRMNTTYRVVSDRFKGEMPTNILSTLNHGLISSFNKNRVQYWKGERSLPNFKKDMAFPFGLQGISRLVYDEEKKAFCFRLYRVPFKTYLGKDFTDKRMLLERLVKGDVKLCASNIQLNGGKIFWLAVFEIEKEKHSLKPEVIAEASLSLEYPIVVKTGKNRLTIGTKEEFLYRRLAIQAARRRTQVGATYSRSGKGKKRKLKAVDKYHKTESNYVAHRIHVYSRKLIDFCIKHQAGTLILMNQEDKVGIAKEEEFVLRNWSYYELMTKIKYKAEKAGIELIIG
notes: Untagged dCas12f, co-expressed in E. coli with its gRNA from the Ata plasmid in which the FLAG tag sits on RpoE or on HTH; also called Ata dCas12f; AtadCas12f
B2: Allomuricauda taeanensis (Ata) sigma factor E RpoE with N-terminal 3xFLAG tag (other)
chain: MLYSDFELLKIGDTSALDHIHAKYFRSILWIGRQWLNDDFLIESLVQDTFLKLWVNRDKLESPEHIFYFLRFVMKRECISYYRKPKYKFHKKVNSLEDYDNYQDYMVGYDPVNDSENLDEQESTQKSFDHIKSILPLLNADKRHLIELCLKYGFQYKAISKVMGKGIHETSREIKEAIEDIKTIVHKGNELGSNDTMTNEIKFSGELSEEQAKVLKMRCDLKYSFSEIAKELELSEKEVHQEFMKAYKLMKANHQLQLQSA
notes: Expressed in E. coli together with dCas12f, HTH and gRNA; also called FLAG-RpoE; Ata RpoE; not shown: N-terminal 3xFLAG tag

Legend:
[1] = target: B2; assay: summary of the ChIP-seq and ChIP-qPCR data on the Ata system in E. coli
[2] = target: B1; assay: ChIP-seq (anti-FLAG) of N-terminally 3xFLAG-tagged Ata RpoE in E. coli co-expressing Ata dCas12f and gRNAs retargeted to four genomic sites
Experimental: After conjugating, the antibody-magnetic beads were added to the sonication supernatant and incubated at 4° C. for 12-16 h. Then, the magnetic beads were washed and immunoprecipitated protein bound to crosslinked DNA was eluted. Reverse-crosslinking was performed at 65° C. overnight. Samples were treated with RNase A (Thermo Fisher Scientific) and proteinase K (Thermo Fisher Scientific) and purified using QIAquick spin columns (QIAGEN). ChIP-sequencing libraries were generated using the NEBNext Ultra II DNA Library Prep Kit for Illumina (NEB). Size selection (˜450 bp fragment size) was performed using AMPure XP Beads (Beckman Coulter) and samples were sequenced using the Illumina NextSeq 500 platform in paired-end mode with 75 cycles per end. Sequencing reads were mapped to the E. coli K-12 genome (GenBank NC_000913.3) using bowtie2 and normalized using deepTools bamCoverage and visualized in IGV using counts per million (CPM). […]
Re-programmability of gRNAs for RNA-guided DNA-targeting of dCas12f and RpoE To test whether the gRNA and TAM were correctly determined by RIP-seq and ChIP-seq, new guide sequences were cloned for one representative system (here, Ata), targeting 4 different DNA sites tiled across the E. coli K-12 genome. […]

| binding result [1] | binding result [2] | Binder |
| --- | --- | --- |
| binds |  | B1 |
|  | binds | B2 |
